This assay has as its target hamster JUNO (hamster). Description: live imaging-based adhesion molecule (LIAM) assay; BHK cells, non-inducible expression (cytomegalovirus promoter); separately transfected cells mixed in equal amounts 4 h after transfection, incubated 20 h, imaged every 6 min for 12 h at 40x, 37 °C, 5% CO2; read-outs: accumulation at the cell interface and translocation to the opposite cell, % of contacting cell pairs.

Data on one molecule can be found in publication PMC9187738.

B1: mouse IZUMO1-Venus (natural protein)
chain: CIKCDQFVTDALKTFENTYLNDHLPHDIHKNVMRMVNHEVSSFGVVTSAEDSYLGAVDENTLEQATWSFLKDLKRITDSDLKGELFIKELLWMLRHQKDIFNNLARQFQKEVLCPNKCGVMSQTLIWCLKCEKQLHICRKSLDCGERHIEVHRSEDLVLDCLLSWHRASKGLTDYSFYRVWENSSETLIAKGKEPYLTKSMVGPEDAGNYRCVLDTINQGHATVIRYDVTVLPPKHSEENQPPNIITQEEHETPVHVTPQTPPGQEPESELYPELHPELYPELIPTVAQNPEKKMKTRLLILLTLGFVVLVASIIISVLHFRKVSAKLKNASDEVKPTASGSKSDQSLSQQMGLKKASQADFNSDYSGDKSEATEN
In the case of B1, the IZUMO1 accumulation (% of contacting cell pairs) amounted to 78%.
